Data from patent US20250002610A1 (Genmab, published 2025).

T1: cynomolgus DR4MfECD-FcHisCtag (cynomolgus monkey)
T1 construct: also called recombinant cynomolgus monkey DR4
T1 chain: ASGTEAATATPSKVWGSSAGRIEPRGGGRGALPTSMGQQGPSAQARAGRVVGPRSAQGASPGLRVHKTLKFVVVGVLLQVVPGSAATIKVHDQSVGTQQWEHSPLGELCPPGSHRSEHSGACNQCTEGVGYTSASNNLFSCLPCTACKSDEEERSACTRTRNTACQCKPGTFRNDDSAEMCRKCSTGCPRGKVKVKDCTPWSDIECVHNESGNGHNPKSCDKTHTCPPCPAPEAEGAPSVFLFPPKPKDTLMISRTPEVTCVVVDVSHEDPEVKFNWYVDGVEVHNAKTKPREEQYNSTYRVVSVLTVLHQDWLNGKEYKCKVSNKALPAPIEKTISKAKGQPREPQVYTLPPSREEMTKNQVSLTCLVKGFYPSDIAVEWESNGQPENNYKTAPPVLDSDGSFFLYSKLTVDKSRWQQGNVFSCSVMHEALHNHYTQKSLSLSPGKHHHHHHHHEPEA

B1: BisG1-FAPα-FERL/DR4-FERR (bispecific antibody, human IgG1, kappa, lambda)
heavy 1: EVQLLESGGGLVQPGGSPRLSCEASGFTFSSYALSWVRQAPGKGLEWVSAISGSGGGRYYADSVKGRFTISRDNSKNTLFLQMNSLRAEDTAVYYCAKEGYSSSGTYWDHWGQGTLVTVSSASTKGPSVFPLAPSSKSTSGGTAALGCLVKDYFPEPVTVSWNSGALTSGVHTFPAVLQSSGLYSLSSVVTVPSSSLGTQTYICNVNHKPSNTKVDKRVEPKSCDKTHTCPPCPAPEFERGPSVFLFPPKPKDTLMISRTPEVTCVVVDVSHEDPEVKFNWYVDGVEVHNAKTKPREEQYNSTYRVVSVLTVLHQDWLNGKEYKCKVSNKALPAPIEKTISKAKGQPREPQVYTLPPSREEMTKNQVSLTCLVKGFYPSDIAVEWESNGQPENNYKTTPPVLDSDGSFLLYSKLTVDKSRWQQGNVFSCSVMHEALHNHYTQKSLSLSPG
light 1: AIQMTQSPSSVSASVGDRVTITCRASQGVSSWLAWYQQKPGRAPKLLIYVASTLQSGVPSRFSGSGSGTDFTLTINSLQPEDFATYYCQQANSFPPTFGQGTRLEMKRTVAAPSVFIFPPSDEQLKSGTASVVCLLNNFYPREAKVQWKVDNALQSGNSQESVTEQDSKDSTYSLSSTLTLSKADYEKHKVYACEVTHQGLSSPVTKSFNRGEC
heavy 2: QVQLQESGPGLVKPSGTLSLTCAVSGGSISSYSWWSWIRQPPGKGLEWIGELYHSGSTNYNPSLKSRVTISVDKSKNQFSLKLRSVTAADTAVYYCVRGVATIDYWGQGTLVTVSSASTKGPSVFPLAPSSKSTSGGTAALGCLVKDYFPEPVTVSWNSGALTSGVHTFPAVLQSSGLYSLSSVVTVPSSSLGTQTYICNVNHKPSNTKVDKRVEPKSCDKTHTCPPCPAPEFERGPSVFLFPPKPKDTLMISRTPEVTCVVVDVSHEDPEVKFNWYVDGVEVHNAKTKPREEQYNSTYRVVSVLTVLHQDWLNGKEYKCKVSNKALPAPIEKTISKAKGQPREPQVYTLPPSREEMTKNQVSLTCLVKGFYPSDIAVEWESNGQPENNYKTTPPVLDSDGSFFLYSRLTVDKSRWQQGNVFSCSVMHEALHNHYTQKSLSLSPG
light 2: QSALTQPPSASGSPGQSVTISCTGTSSDVGGYNFVSWYQQDPGKAPKLLIYEVTKRPSGVPDRFSGSKSGNTASLTVSGLQAEDEADYYCSSYAGSNNVMFGGGTKLTVLGQPKAAPSVTLFPPSSEELQANKATLVCLISDFYPGAVTVAWKADSSPVKAGVETTTPSKQSNNKYAASSYLSLTPEQWKSHRSYSCQVTHEGSTVEKTVAPTECS
notes: Human IgG1 bispecific made by controlled Fab-arm exchange of IgG1-FAPα-FERL and IgG1-DR4-FERR; monovalent for FAPα and for DR4; also called GEN1057
B2: BisG1-b12-FERL/DR4-FERR (bispecific antibody, human IgG1, kappa, lambda)
heavy 1: QVQLVQSGAEVKKPGASVKVSCQASGYRFSNFVIHWVRQAPGQRFEWMGWINPYNGNKEFSAKFQDRVTFTADTSANTAYMELRSLRSADTAVYYCARVGPYSWDDSPQDNYYMDVWGKGTTVIVSSASTKGPSVFPLAPSSKSTSGGTAALGCLVKDYFPEPVTVSWNSGALTSGVHTFPAVLQSSGLYSLSSVVTVPSSSLGTQTYICNVNHKPSNTKVDKRVEPKSCDKTHTCPPCPAPEFERGPSVFLFPPKPKDTLMISRTPEVTCVVVDVSHEDPEVKFNWYVDGVEVHNAKTKPREEQYNSTYRVVSVLTVLHQDWLNGKEYKCKVSNKALPAPIEKTISKAKGQPREPQVYTLPPSREEMTKNQVSLTCLVKGFYPSDIAVEWESNGQPENNYKTTPPVLDSDGSFLLYSKLTVDKSRWQQGNVFSCSVMHEALHNHYTQKSLSLSPG
light 1: EIVLTQSPGTLSLSPGERATFSCRSSHSIRSRRVAWYQHKPGQAPRLVIHGVSNRASGISDRFSGSGSGTDFTLTITRVEPEDFALYYCQVYGASSYTFGQGTKLERKRTVAAPSVFIFPPSDEQLKSGTASVVCLLNNFYPREAKVQWKVDNALQSGNSQESVTEQDSKDSTYSLSSTLTLSKADYEKHKVYACEVTHQGLSSPVTKSFNRGEC
heavy 2: B1 heavy 2
light 2: B1 light 2
notes: Fab-arm exchange of IgG1-b12-FERL and IgG1-DR4-FERR; also called bsIgG1-ctrl-FERLxDR4-FERR

Experiments:
[1] = target: T1, cynomolgus DR4MfECD-FcHisCtag; assay: BLI (Octet), antigen captured on anti-Penta-HIS sensors, average of three experiments
Protocol: (§1) Experiments were carried out while shaking at 1,000 RPM at 30° C. Amine Reactive 2nd Generation (AR2G) biosensors (Sartorius, Cat #18-5092) were activated by reaction with 20 mM EDC (N-(3-Dimethylaminopropyl)-N′-ethylcarbodiimide hydrochloride) (Sigma-Aldrich, Cat #03449) and 10 mM s-NHS (N-hydroxysulfosuccinimide sodium salt) (Sigma-Aldrich, Cat #56485) for 300 s. The activated AR2G sensors were loaded with 2.5 μg/mL His-tagged recombinant Human FAPα (Acro Biosystems, Cat #FAP-H5244-100ug) in 10 mM Sodium Acetate pH 5.0 (Sartorius, Cat #18-1069) or 2.5 μg/mL His-tagged recombinant Cynomolgus FAPα (Acro Biosystems, Cat #FAP-C52H3-100ug) in 10 mM Sodium Acetate pH 5.0 for 600 s and quenched with 1 M ethanolamine pH 8.5 (Sartorius Cat #18-1071) for 300 s. After a baseline measurement in Sample Diluent (1000 s; Sartorius, Cat #18-1104), the association (100 s) and dissociation (4,000 s) of functionally monovalent antibody was determined using a concentration range of 0.78-800 nM with two-fold dilution steps in Sample Diluent. The molecular mass of the antibodies used for the calculations was calculated from the sequences.
(§2) The binding affinity of BisG1-FAPα-FERL/DR4-FERR, BisG1-b12-FERL/DR4-FERR and control BisG1-FAPα-FERL/b12-FERR to recombinant human and cynomolgus monkey DR4 protein was determined using label-free biolayer interferometry on an Octet HTX instrument (Sartorius).
(§3) The protocol detailed in Example 5 was used with the following differences: anti-Penta-HIS biosensors (Sartorius, Cat #18-5120) were used; the sensors were preconditioned by exposure to 10 mM glycine (Sigma-Aldrich, Cat #15527) buffer pH 1.5 for 5 s, followed by neutralization in Sample Diluent (Sartorius, Cat #18-1104) for 5 s; both steps were repeated 2 times; the sensors were loaded with 50 nM human DR4HsECD-FcHisCtag (SEQ ID NO: 66), or cynomolgus DR4MfECD-FcHisCtag (SEQ ID NO: 67), for 600 s; the dissociation time was 1,000 s; The window of interest for the dissociation time was set at 100 s for the cynomolgus antigen and at 1,000 s for the human antigen.

[2] = target: T2, human DR4HsECD-FcHisCtag (human); assay: as above
T2 construct: also called recombinant human DR4
T2 sequence (chain, as listed by the source limits assumed): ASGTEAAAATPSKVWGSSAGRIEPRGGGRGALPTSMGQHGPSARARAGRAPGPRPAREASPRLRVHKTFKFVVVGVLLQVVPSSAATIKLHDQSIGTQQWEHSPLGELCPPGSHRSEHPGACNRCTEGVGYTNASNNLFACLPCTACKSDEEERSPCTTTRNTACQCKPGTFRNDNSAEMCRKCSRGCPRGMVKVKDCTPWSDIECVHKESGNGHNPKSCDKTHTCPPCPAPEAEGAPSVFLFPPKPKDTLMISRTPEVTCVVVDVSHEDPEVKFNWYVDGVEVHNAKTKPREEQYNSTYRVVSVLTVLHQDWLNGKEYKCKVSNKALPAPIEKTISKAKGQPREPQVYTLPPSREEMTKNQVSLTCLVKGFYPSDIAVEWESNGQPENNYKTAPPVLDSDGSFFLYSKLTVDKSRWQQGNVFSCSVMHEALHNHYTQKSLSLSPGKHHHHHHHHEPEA
Protocol: as §1, §2, §3

Row | Binder | Kd [1] [nM] | koff [1] [s⁻¹] | kon [1] [M⁻¹ s⁻¹] | Kd [2] [nM] | koff [2] [s⁻¹] | kon [2] [M⁻¹ s⁻¹]
1 | B1 | 290 | 0.008 | 28000 | 0.39 | 0.00012 | 320000
2 | B2 | 260 | 0.0082 | 31000 | 0.32 | 0.0001 | 330000
